Patent US20020086331

Target: T1, Nit domain of C. elegans NitFhit, O76463
T1 chain: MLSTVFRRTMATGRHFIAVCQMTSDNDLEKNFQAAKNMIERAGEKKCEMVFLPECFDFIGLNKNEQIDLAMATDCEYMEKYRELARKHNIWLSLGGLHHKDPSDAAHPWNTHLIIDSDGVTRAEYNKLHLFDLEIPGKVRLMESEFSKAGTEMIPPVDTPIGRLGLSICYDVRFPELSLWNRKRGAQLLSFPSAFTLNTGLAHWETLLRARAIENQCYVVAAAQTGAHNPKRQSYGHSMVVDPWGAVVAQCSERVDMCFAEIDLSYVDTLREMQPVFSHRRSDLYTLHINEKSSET

B1: Fhit domain of C. elegans NitFhit (protein)
chain: GGLKFARFNIPADHIFYSTPHSFVFVNLKPVTDGHVLVSPKRVVPRLTDLTDAETADLFIVAKKVQAMLEKHHNVTSTTICVQDGKDAGQTVPHVHIHILPRRAGDFGDNEIYQKLASHDKEPERKPRSNEQMAEEAVVYRNLM
activity of worm NitFhit on ApppBODIPY relative to human Fhit (kcat/Km): worm NitFhit displays only 22% of the activity of human Fhit on ApppBODIPY
activity of worm NitFhit on GpppBODIPY relative to human Fhit (kcat/Km): it displays 109% of the activity of human Fhit on GpppBODIPY
